Key:
Assay type in all cases: biochemical
[1] = HTP-analysis of yeast culture supernatants, no challenge (MUGal hydrolysis); details: activity of the variant/activity of Rd3BB (SEQ ID NO: 13), yeast culture supernatant
Outline: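 Activity read as 4-methylumbelliferyl α-D-galactopyranoside hydrolysis: fluorescence (355/448 nm) after sodium carbonate stop, following 30-180 min at 37° C with 2 mM MUGal stock at pH 4.6–4.8. Enzyme source is unchallenged culture supernatant of INVSc1 yeast expressing GLA variants, grown 66-84 h at 30° C.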

[2] = HTP-analysis of supernatants pretreated with acid (MUGal hydrolysis); details: challenge at pH 4.0; activity of the variant/activity of Rd3BB (SEQ ID NO: 13); yeast culture supernatant
Outline: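 Fluorescence of MUGal hydrolysis (Ex. 355 nm, Em. 448 nm) is read after sodium carbonate quench. The enzyme source is INVSc1 yeast culture supernatant, first exposed to pH 3.3-4.3 McIlvaine buffer at 37° C. for 1-3 h, then reacted at pH 4.8 for 30-180 minutes.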

[3] = HTP-analysis of supernatants pretreated with base (MUGal hydrolysis); details: challenge at pH 8.2; activity of the variant/activity of Rd3BB (SEQ ID NO: 13); yeast culture supernatant
Outline: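 Supernatants from INVSc1 yeast expressing GLA variants (SD-Ura, 66-84 h, 30° C) were mixed with McIlvaine buffer pH 7.0-8.2 or 200 mM sodium bicarbonate pH 9.1-9.7 and held 1-18 h at 37° C. Residual activity was then measured on MUGal at pH 4.8/4.3, 37° C, 30-180 min, by fluorescence (Ex 355/Em 448 nm).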

[4] = HTP-analysis of supernatants pretreated with bovine serum (MUGal hydrolysis); details: activity of the variant/activity of Rd3BB (SEQ ID NO: 13), yeast culture supernatant
Outline: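 Yeast INVSc1 culture supernatants containing secreted GLA variants were mixed with bovine serum (20:80) and held 1 h at 37° C. Serum-treated samples then reacted with MUGal (4 mM stock) in citrate/McIlvaine buffer (pH 4.3/4.8) for 180 min at 37° C., were quenched with sodium carbonate, and read by fluorescence (Ex 355, Em 448 nm).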

| Molecule | Relative Activity of GLA Variants After No Challenge (NC) [1] | Relative Activity of GLA Variants After Challenge at pH 4.0 [2] | Relative Activity of GLA Variants After Challenge at pH 8.2 [3] | Relative Activity of GLA Variants After Challenge with Serum [4] |
| --- | --- | --- | --- | --- |
| 313 (protein, Synthetic Polypeptide sequence of Variant No. 313 of mature Human GLA) LDNGLARTPTMGWLHWERFMCNLDCQEEPDSCISEKLFMEMAELMVSEGWKDAGYEYLCIDDCWMAPQRDSEGRLQADPQRFPHGIRQLANYVHSKGLKFGIYADVGNKTCAGFPGSFGYYDIDSQTFADWGVDLLKFDGCYCDSLENLADGYKHMSLALNRTGRSIVYSCEWPLYMWPFQKPNYTEIRQYCNHWRNFADIDDSWASVKSILDWTSFNQEKIVDVAGPGGWNDPDMLVIGNFGLSWNQQVTQMALWAIMAAPLFMSNDLRHISPQAKALLQDKDVIAINQDPLGKQGYQLRKGDNFEVWERPLSGLAWAVAIINRQEIGGPRSYTIAVASLGGGVACNPACFITQLLPVKRKLGFYNWTSRLKSHINPTGTVLLQLENTMQMSLKDLL | + (+ = 0.5 to 1.5 relative activity over Rd3BB (SEQ ID NO: 13)) | + (+ = 0.5 to 1.5 relative activity over Rd3BB (SEQ ID NO: 13)) | − (− = <0.5 relative activity to Rd3BB (SEQ ID NO: 13)) | + (+ = 0.5 to 1.5 relative activity over Rd3BB (SEQ ID NO: 13)) |
| 314 (protein, Synthetic Polypeptide sequence of Variant No. 314 of mature Human GLA) LDNGLARTPTMGWLHWERFMCNLDCQEEPDSCISEKLFMEMAELMVSEGWKDAGYEYLCIDDCWMAPQRDSEGRLQADPQRFPHGIRQLANYVHSKGLKFGIYADVGNKTCAGFPGSFGYYDIDAQTFADWGVDLLKFDGCYCDSLENLADGYKHMSLALNRTGRSIVYSCEWPLYMWPFQKPNYTEIRQYCNHWRNFADIDDSWASVKSILDWTSFNQERIVDVAGPGGWNDPDMLVIGNFGLSWDQQVTQMALWAIMAAPLFMSNDLRHISPQAKALLQDKDVIAINQDPLGKQGYQLRKGDNFEVWERPLSGLAWAVAVINRQEIGGPRSYTIAVASLGDGVACNPACFITQLLPVKRKLGFYNWTSRLKSHVNPTGTVLLQLENTMQMSLKDLL | + (+ = 0.5 to 1.5 relative activity over Rd3BB (SEQ ID NO: 13)) | ++ (++ = >1.5 to 2.5 relative activity over Rd3BB (SEQ ID NO: 13)) | ++ (++ = >1.5 to 2.5 relative activity over Rd3BB (SEQ ID NO: 13)) | + (+ = 0.5 to 1.5 relative activity over Rd3BB (SEQ ID NO: 13)) |
| 315 (protein, Synthetic Polypeptide sequence of Variant No. 315 of mature Human GLA) LDNGLARTPTMGWLHWERFMCNLDCQEEPDSCISEKLFMEMAELMVSEGWKDAGYEYLCIDDCWMAPQRDSEGRLQADPQRFPHGIRQLANYVHSKGLKFGIYADVGNKTCAGFPGSFGYYDIDAQTFADWGVDLLKFDGCYCDSLENLADGYKHMSLALNRTGRSIVYSCEWPLYMWPFQKPNYTEIRQYCNHWRNFADIDDSWASVKSILDWTSFNQERIVDVAGPGGWNDPDMLVIGNFGLSWNQQVTQMALWAIMAAPLFMSNDLRHISPQAKALLQDKDVIAINQDPLGKQGYQLRKGDNFEVWERPLSGLAWAVAVINRQEIGGPRSYTIAVASLGKGVACNPACFITQLLPVKRKLGLYNWTSRLKSHVNPTGTVLLQLENTMQMSLKDLL | + (+ = 0.5 to 1.5 relative activity over Rd3BB (SEQ ID NO: 13)) | + (+ = 0.5 to 1.5 relative activity over Rd3BB (SEQ ID NO: 13)) | + (+ = 0.5 to 1.5 relative activity over Rd3BB (SEQ ID NO: 13)) | + (+ = 0.5 to 1.5 relative activity over Rd3BB (SEQ ID NO: 13)) |
| 316 (protein, Synthetic Polypeptide sequence of Variant No. 316 of mature Human GLA) LDNGLARTPTMGWLHWERFMCNLDCQEEPDSCISEKLFMEMAELMVSEGWKDAGYEYLCIDDCWMAPQRDSEGRLQADPQRFPHGIRQLANYVHSKGLKFGIYADVGNKTCAGFPGSFGYYDIDAQTFADWGVDLLKFDGCYCDSLENLADGYKHMSLALNRTGRSIVYSCEWPLYMWPFQKPNYTEIRQYCNHWRNFADIDDSWASVKSILDWTSFNQEKIVDVAGPGGWNDPDMLVIGNFGLSWNQQVTQMALWAIMAAPLFMSNDLRHISPQAKALLQDKDVIAINQDPLGKQGYQLRQGDNFEVWERPLSGLAWAVAVINRQEIGGPRSYTIAVASLGDGVACNPACFITQLLPVKRKLGFYNWTSRLKSHINPTGTVLLQLENTMQMSLKDLL | + (+ = 0.5 to 1.5 relative activity over Rd3BB (SEQ ID NO: 13)) | + (+ = 0.5 to 1.5 relative activity over Rd3BB (SEQ ID NO: 13)) | + (+ = 0.5 to 1.5 relative activity over Rd3BB (SEQ ID NO: 13)) | + (+ = 0.5 to 1.5 relative activity over Rd3BB (SEQ ID NO: 13)) |
| 317 (protein, Synthetic Polypeptide sequence of Variant No. 317 of mature Human GLA) LDNGLARTPTMGWLHWERFMCNLDCQEEPDSCISEKLFMEMAELMVSEGWKDAGYEYLCIDDCWMAPQRDSEGRLQADPQRFPHGIRQLANYVHSKGLKFGIYADVGNKTCAGFPGSFGYYDIDAQTFADWGVDLLKFDGCYCDSLENLADGYKHMSLALNRTGRSIVYSCEWPLYMWPFQKPNYTEIRQYCNHWRNFADIDDSWASVKSILDWTSFNQEKIVDVAGPGGWNDPDMLVIGNFGLSWNQQVTQMALWAIMAAPLFMSNDLRHISPQAKALLQDKDVIAINQDPLGKQGYQLRQGDNFEVWERPLSGLAWAVAVINRQEIGGPRSYTIAVASLGDGVACNPACFITQLLPVKRKLGLYNWTSRLKSHINPTGTVLLQLENTMQMSLKDLL | + (+ = 0.5 to 1.5 relative activity over Rd3BB (SEQ ID NO: 13)) | + (+ = 0.5 to 1.5 relative activity over Rd3BB (SEQ ID NO: 13)) | − (− = <0.5 relative activity to Rd3BB (SEQ ID NO: 13)) | − (− = <0.5 relative activity to Rd3BB (SEQ ID NO: 13)) |
| 319 (protein, Synthetic Polypeptide sequence of Variant No. 319 of mature Human GLA) LDNGLARTPTMGWLHWERFMCNLDCQEEPDSCISEKLFMEMAELMVSEGWKDAGYEYLCIDDCWMAPQRDSEGRLQADPQRFPHGIRQLANYVHSKGLKFGIYADVGNKTCAGFPGSFGYYDIDAQTFADWGVDLLKFDGCYCDSLENLADGYKHMSLALNRTGRSIVYSCEWPLYMWPFQKPNYTEIRQYCNHWRNFADIDDSWASIKSILDWTSFNQERIVDVAGPGGWNDPDMLVIGNFGLSWNQQVTQMALWAIMAAPLFMSNDLRHISPQAKALLQDKDVIAINQDPLGKQGYQLRQGDNFEVWERPLSGLAWAVAIINRQEIGGPRSYTIAVASLGKGVACNPACFITQLLPVKRKLGFYNWTSRLKSHVNPTGTVLLQLENTMQMSLKDLL | + (+ = 0.5 to 1.5 relative activity over Rd3BB (SEQ ID NO: 13)) | + (+ = 0.5 to 1.5 relative activity over Rd3BB (SEQ ID NO: 13)) | + (+ = 0.5 to 1.5 relative activity over Rd3BB (SEQ ID NO: 13)) | + (+ = 0.5 to 1.5 relative activity over Rd3BB (SEQ ID NO: 13)) |
| 318 (protein, Synthetic Polypeptide sequence of Variant No. 318 of mature Human GLA) LDNGLARTPTMGWLHWERFMCNLDCQEEPDSCISEKLFMEMAELMVSEGWKDAGYEYLCIDDCWMAPQRDSEGRLQADPQRFPHGIRQLANYVHSKGLKFGIYADVGNKTCAGFPGSFGYYDIDAQTFADWGVDLLKFDGCYCDSLENLADGYKHMSLALNRTGRSIVYSCEWPLYMWPFQKPNYTEIRQYCNHWRNFADIDDSWASVKSILDWTSFNQETIVDVAGPGGWNDPDMLVIGNFGLSWNQQVTQMALWAIMAAPLFMSNDLRHISPQAKALLQDKDVIAINQDPLGKQGYQLRQGDNFEVWERPLSGLAWAVAVINRQEIGGPRSYTIAVASLGKGVACNPACFITQLLPVKRKLGFYNWTSRLKSHVNPTGTVLLQLENTMQMSLKDLL | + (+ = 0.5 to 1.5 relative activity over Rd3BB (SEQ ID NO: 13)) | + (+ = 0.5 to 1.5 relative activity over Rd3BB (SEQ ID NO: 13)) | ++ (++ = >1.5 to 2.5 relative activity over Rd3BB (SEQ ID NO: 13)) | + (+ = 0.5 to 1.5 relative activity over Rd3BB (SEQ ID NO: 13)) |

From patent publication US11278600B2, “Human alpha-galactosidase variants” (Codexis, Inc., priority 2014, dated 2022)
